B1: COV2-2952 (antibody, V domains shown)
VH: EVQLVESGGGLVQPGGSLRLSCAASGLTVRSNYMTWVRQTPGKGLEWVSVIYSGGSTFYADSVKGRFTISRDNSKNTVYLQMNSLRAEDTAVYYCARDLVTYGLDVWGQGTTVTVSS
VL: DIQLTQSPSFLSASVGDRVTITCRASQGISNYLAWYQQKPGTAPNLLIYAASTLQSGVPSRFSGSGSGTEFTLTISSLQPEDFATYYCQLLNSHPLTFGQGTRLEIK
B2: COV2-2165 (antibody, V domains shown)
VH: EVQLVESGGGLVQPGGSLRLSCAASGLTVRSNYMTWVRQTPGKGLEWVSVIYSGGSTFYADSVKGRFTISRDNSKNTVYLQMNSLRAEDTAVYYCARDLVTYGLDVWGQGTTVTVSS
VL: DIQLTQSPSFLSASVGDRVTITCRASQGISNYLAWYQQKPGTAPNLLIYAASTLQSGVPSRFSGSGSGTEFTLTISSLQPEDFATYYCQLLNSHPLTFGQGTRLEIK
B3: COV2-2838 (antibody, V domains shown)
VH: QMQLVQSGPEVKKPGTSVKVSCKASGFTFMSSAVQWVRQARGQRLEWIGWIVIGSGNTNYAQKFQERVTITRDMSTSTAYMELSSLRSEDTAVYYCAAPYCSSISCNDGFDIWGQGTMVTVSS
VL: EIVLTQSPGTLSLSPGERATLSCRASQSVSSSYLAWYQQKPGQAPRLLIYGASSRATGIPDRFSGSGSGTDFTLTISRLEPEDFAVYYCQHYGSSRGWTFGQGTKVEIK
B4: COV2-2196 (antibody, V domains shown)
VH: QMQLVQSGPEVKKPGTSVKVSCKASGFTFMSSAVQWVRQARGQRLEWIGWIVIGSGNTNYAQKFQERVTITRDMSTSTAYMELSSLRSEDTAVYYCAAPYCSSISCNDGFDIWGQGTMVTVSS
VL: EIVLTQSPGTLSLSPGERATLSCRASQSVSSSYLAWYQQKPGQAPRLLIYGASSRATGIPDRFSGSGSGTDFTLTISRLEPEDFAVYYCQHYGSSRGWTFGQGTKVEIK
notes: also called mAb COV2-2196
B5: COV2-3025 (antibody, V domains shown)
VH: EVQLVQSGPEVKKPGTSVKVSCKASGFTFMSSAVQWVRQARGQRLEWIGWIVIGSGNTNYAQKFQERVTITRDMSTSTAYMELSSLRSEDTAVYYCAAPYCSSISCNDGFDIWGQGTMVTVSS
VL: EIVLTQSPGTLSLSPGERVTLSCRASQSVSSSYLAWYQQKPGQAPRLLIYGASSRATGIPDRFSGSGSGTDFTLTISRLEPEDFAVYYCQHYGSSRGWTFGQGTKVEIK
B6: COV2-2096 (antibody, V domains shown)
VH: QVQLVQSGAEVKKPGASVKVSCKASGYTFGSFDINWVRQATGQGLEWMGRMNSNSGNTAYAQKFQGRVTMTRDTSTNTAYMELSSLRSEDTAMYYCARMRSGWPTHGRPDDFWGRGTLVTVSS
VL: QSVLTQAPSASGTPGQRVTISCSGSNSNIGSYTINWYQQLPGTAPKLLIYGNDQRTSGVPDRFSGSKFGTSASLAISGLQSEDENNYYCAVWDDSLNGLVFGGGTKLTVL
B7: COV2-2391 (antibody, V domains shown)
VH: QVQLVQSGAEVKKPGASVKVSCKASGYTFGSFDINWVRQATGQGLEWMGRMNSNSGNTAYAQKFQGRVTMTRDTSTNTAYMELSSLRSEDTAMYYCARMRSGWPTHGRPDDFWGRGTLVTVSS
VL: QSVLTQAPSASGTPGQRVTISCSGSNSNIGSYTINWYQQLPGTAPKLLIYGNDQRTSGVPDRFSGSKFGTSASLAISGLQSEDENNYYCAVWDDSLNGLVFGGGTKLTVL
B8: COV2-2094 (antibody, V domains shown)
VH: EVQLVESGGGVVRPGGSLRLSCAASGFIFDDYDMTWVRQAPGKGLEWVSGINWNGGSTGYADSVKGRFTISRDNAKNSLYLQMNSLRAEDTALYHCAVIMSPIPRYSGYDWAGDAFDIWGQGTMVTVSS
VL: SSELTQDPAVSVALGQTVRITCQGDSLRSYYASWYQQKPGQVPILVIYDKNNRPSGIPDRFSGSSSGNTASLTITGAQAEDEADYYCNSRDSSGNAVVFGGGTKLTVL
B9: COV2-2514 (antibody, V domains shown)
VH: EVQLVESGGGVVRPGGSLRLSCAASGFIFDDYDMTWVRQAPGKGLEWVSGINWNGGSTGYADSVKGRFTISRDNAKNSLYLQMNSLRAEDTALYHCAVIMSPIPRYSGYDWAGDAFDIWGQGTMVTVSS
VL: SSELTQDPAVSVALGQTVRITCQGDSLRSYYASWYQQKPGQVPILVIYDKNNRPSGIPDRFSGSSSGNTASLTITGAQAEDEADYYCNSRDSSGNAVVFGGGTKLTVL

Assays:
[1] = biological target: T1, SARS-CoV-2 spike (S) glycoprotein on virus (neutralization assays) (SARS-CoV-2, UniProt P0DTC2 14-1273); test: cell-based or functional assay
SARS-CoV-2 NTD (Table A) = biological target: T2, SARS-CoV-2 NTD (Table A) (SARS-CoV-2, UniProt P0DTC2 14-305); test: ELISA, purified IgG
T2 construct: domain: NTD

[2] = biological target: T1, SARS-CoV-2 spike (S) glycoprotein on …; test: cell-based or functional assay; remark: listed apart in the source
[3] = biological target: T3, SARS-CoV-2 S receptor-binding domain (SRBD), residues 319-541 (SARS-CoV-2, UniProt P0DTC2 319-541); test: ELISA on coated antigen
T3 construct: range 319-541

SARS-CoV-2 RBD (Table A) = biological target: T4, SARS-CoV-2 RBD (Table A) (SARS-CoV-2, UniProt P0DTC2 319-541); test: ELISA, purified IgG
T4 construct: domain: RBD

[4] = biological target: SARS-CoV Spike trimer (Table A) (SARS-CoV, UniProt P59594 14-1190); test: ELISA, purified IgG

Binder	SARS-CoV-2 focus reduction test, IC50 [1] [µg/mL]	ELISA OD 450 nm (SARS-CoV-2 NTD (Table A)) [OD 450 nm]	Neutralization IC50, ng/mL (FRNT, authentic SARS-CoV-2) [2] [ng/mL]	Nano-luciferase virus reduction test, SARS-CoV-2, IC50 [1] [µg/mL]	EC50 [3] [µg/mL]	ELISA OD 450 nm (SARS-CoV-2 RBD (Table A)) [OD 450 nm]	ELISA OD 450 nm [4] [OD 450 nm]
B1	0.089	0.1					
B2	0.185	0.05	332	< 0.4			
B3	0.014	0.12					
B4	0.029	0.05	15	< 0.1			
B5	0.031		37		0.0011	3.7	0.21
B6	0.29	0.12	59	< 0.2			
B7	0.045	0.1					
B8	0.151	0.1	154	< 0.05	0.0014	4.3	4.1
B9	0.084	0.09				3.56	3.6

From US20210300999A1 (VANDERBILT UNIVERSITY, published 2021)
